Measurements from US20020193571A1 (published 2002).

Molecular target: T1, human WSX receptor (hWSXR), antigen of the phage antigen-binding ELISA (human, UniProt P48357 22-841)
T1 construct: both panning antigens hold the ECD; also called huWSXR
T1 sequence: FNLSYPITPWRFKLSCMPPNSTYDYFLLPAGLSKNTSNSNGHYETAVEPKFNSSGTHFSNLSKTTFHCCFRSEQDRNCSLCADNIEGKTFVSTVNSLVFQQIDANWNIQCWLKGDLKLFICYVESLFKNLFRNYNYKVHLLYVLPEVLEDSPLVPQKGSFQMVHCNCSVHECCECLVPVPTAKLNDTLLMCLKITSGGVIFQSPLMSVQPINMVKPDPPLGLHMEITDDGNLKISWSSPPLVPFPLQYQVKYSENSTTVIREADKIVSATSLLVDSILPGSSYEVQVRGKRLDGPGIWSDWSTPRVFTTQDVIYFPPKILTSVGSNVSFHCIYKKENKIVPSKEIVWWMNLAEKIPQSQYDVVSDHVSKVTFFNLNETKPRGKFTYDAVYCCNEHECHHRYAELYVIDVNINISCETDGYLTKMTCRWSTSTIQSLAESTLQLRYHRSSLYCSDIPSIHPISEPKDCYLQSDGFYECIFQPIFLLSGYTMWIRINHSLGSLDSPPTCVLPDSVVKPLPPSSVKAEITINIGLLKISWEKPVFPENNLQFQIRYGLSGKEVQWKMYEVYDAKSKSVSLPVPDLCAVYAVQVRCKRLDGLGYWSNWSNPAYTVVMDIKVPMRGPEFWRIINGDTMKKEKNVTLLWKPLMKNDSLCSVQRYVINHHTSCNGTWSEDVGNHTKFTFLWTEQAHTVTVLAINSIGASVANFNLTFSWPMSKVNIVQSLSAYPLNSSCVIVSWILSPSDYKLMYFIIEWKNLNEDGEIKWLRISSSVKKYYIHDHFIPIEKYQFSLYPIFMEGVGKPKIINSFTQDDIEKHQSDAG
Test: phage antigen-binding ELISA

| Binder | binding result |
| --- | --- |
| agonist antibody clone #17 scFv (scFv, Human scFv from a phage library; tested as scFv phage and as soluble scFv) scFv: QVRLQQSGGGLVQPGRSLRLSCAASGFTFDDYAMHWVRQAPGKGLEWVSGMTWNSGSIGYADSVKGRFTISRDNAKNSLYLQMNSLRAEDTAVYYCAREPHNTDAFDIWGRGTLVTVSSGGGGPGGGGSGGGGSDVVMTQSPSFLSAFVGDTITITCRASQGIYNYLAWYQQKPGKAPKLLIYAASTLQSGVPSRFSGSGSGTEFTLTISSLQPEDFGTYYCQQLISYPLTFGGGTKVEIK | binds |
| agonist antibody clone #3 scFv (scFv, Human scFv from a phage library) scFv: EVQLVQSGAEVKKPGASVKVSCKASGYTFTGYYMYWVRQAPGQGLEWMGWINPNSGGTNYAQKFQGRVTMTRDTSIGTAYMELSRLSSDDTAVYYCARDRYYGSSAYHRGSYYMDVWGRGTLVTVSSGGGGTGGGGSGGGGSSELTQDPAVSVALGQTVRITCQGDSLRSYYASWYQQKPGQAPVLVIYGKNNRPSGIPDRFSGSSSGNTASLTITGAQAEDEADYYCNSRDSSGNHVVFGGGTKLTVL | binds |
